# Data taken from patent publication US20110005523A1, “Pharmaceutical Polypeptide Dry Powder Aerosol Formulation and Method of Preparation” (published 2011).
# Where “and” joins values, the source holds several entries; their conditions need not be identical. Equal values may be shown once.
# B1: human interleukin-4 mutein met-R121D/Y124D (ligand)
# chain: MHKCDITLQEIIKTLNSLTEQKTLCTELTVTDIFAASKNTTEKETFCRAATVLRQFYSHHEKDTRCLGATAQQFHRHKQLIRFLKRLDRNLWGLAGLNSCPVKEANQSTLENFLERLKTIMDEKDSKCSS
# Columns and labels:
# IL-4 receptor [1] = target: T1, IL-4 receptor (Homo sapiens (Human), UniProt P24394); assay: cell-based or functional assay
# IL-4 receptor [2] = target: T1, IL-4 receptor; assay: cell-based or functional assay; remark: listed apart in the source
binder,measurement,setting,value
B1,"Mean EC50, nM (TF1 bioassay; 1-Spray Dry Powder)",IL-4 receptor [1],0.496 nM
same,"Mean EC50, nM (TF1 bioassay; 2-Spray Dry Powder)",IL-4 receptor [1],0.518 nM
same,"Mean EC50, nM (TF1 bioassay; 3-Spray Dry Powder)",IL-4 receptor [1],0.577 nM
same,"Mean EC50, nM (TF1 bioassay; 4-Spray Dry Powder)",IL-4 receptor [1],0.555 nM
same,"Mean EC50, nM (TF1 bioassay; mIL-4 Standard)",IL-4 receptor [1],0.524 nM
same,"Functionality by Bioassay (specific activity), EC 50 (nM); stability batch, 1 month (5° C.)",IL-4 receptor [2],0.178 nM and 0.138 nM
same,"Functionality by Bioassay (specific activity), EC 50 (nM); stability batch, 1 month (30° C./65%)",IL-4 receptor [2],0.191 nM and 0.184 nM
same,"Functionality by Bioassay (specific activity), EC 50 (nM); stability batch, 3 month (5° C.)",IL-4 receptor [2],0.302 nM
same,"Functionality by Bioassay (specific activity), EC 50 (nM); stability batch, 3 month (30° C./65%)",IL-4 receptor [2],0.3 nM
same,"Functionality by Bioassay (specific activity), EC 50 (nM); stability batch, T0",IL-4 receptor [2],0.246 nM and 0.263 nM
same,"Functionality by Bioassay, Standard EC 50 (nM); reference standard",IL-4 receptor [2],0.264 nM and 0.194 nM and 0.305 nM
